Experimental data: publication PMC2919855 (Biochemistry, 2010)
Non-standard residues stand in square brackets, D forms with d. Residues, ends and D or L forms follow the SMILES beside them. No end group written: not given here. *: point of attachment. Proxyl = 3-carboxy-2,2,5,5-tetramethylpyrrolidinyloxy spin label; TOAC = CC1(C)CC(N)(C(=O)O)CC(C)(C)N1[O]; X1 = CC1(C)CC(C(=O)*)C(C)(C)N1[O]; Aib = CC(C)(N)C(=O)O

Columns and labels:
[1] = target: rhodopsin in rod outer segment (ROS) membranes (UniProt P02699); assay: Meta II stabilization assay
Sequence of rhodopsin in rod outer segment (ROS) membranes (P02699 whole entry): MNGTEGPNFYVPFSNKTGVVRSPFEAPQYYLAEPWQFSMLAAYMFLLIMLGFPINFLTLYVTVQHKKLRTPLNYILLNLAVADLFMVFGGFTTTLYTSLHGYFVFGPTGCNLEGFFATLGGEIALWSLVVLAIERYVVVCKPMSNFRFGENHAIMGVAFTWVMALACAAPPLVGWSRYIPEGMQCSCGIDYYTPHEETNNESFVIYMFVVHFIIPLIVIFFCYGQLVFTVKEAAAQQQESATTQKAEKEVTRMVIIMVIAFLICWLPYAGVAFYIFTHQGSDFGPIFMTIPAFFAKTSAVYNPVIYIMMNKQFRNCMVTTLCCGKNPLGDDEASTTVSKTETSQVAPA

[2] = target: rhodopsin in rod outer segment (ROS) membranes (UniProt P02699); assay: EPR spectroscopy
[3] = target: rhodopsin in rod outer segment (ROS) membranes (UniProt P02699); assay: time-resolved EPR after a laser flash
[4] = target: T1, rhodopsin in rod outer segments (ROS) (Bos taurus, UniProt P02699); settings: cited from earlier work
T1 sequence (P02699 whole entry): as above

[5] = target: photoactivated rhodopsin (R*) in ROS membranes (Bos taurus, UniProt P02699); assay: Direct binding by EPR: spectral integration of bound and free peptide components
Sequence of photoactivated rhodopsin (R*) in ROS membranes (P02699 whole entry): as above

[6] = target: T1, rhodopsin in rod outer segments (ROS); assay: Meta II; type: biochemical; settings: result in words

Row | Compound | Kd [2] | ability to stabilize the MII state of rhodopsin [6] | also measured
1 | TOAC^343-Gtα(340–350) high-affinity peptide | 12.5 µM |  | Kd [1]: 10 µM; lifetime of binding after the flash (single exponential) [3]: 5.8 ms
2 | [Aib]K[Aib][Aib]LKDCGLG |  |  | activity in stabilization of the MII state of rhodopsin [4]: full activity
3 | CC(C)C[C@H](NC(=O)[C@H](CC(=O)O)NC(=O)[C@H](CCC(=O)O)NC(=O)[C@H](CC(C)C)NC(=O)[C@@H](NC(=O)C1CC(C)(C)N([O])C1(C)C)C(C)C)C(=O)N[C@@H](CCCCN)C(=O)N[C@@H](CO)C(=O)N[C@@H](CS)C(=O)NC1(C(=O)N[C@@H](CC(C)C)C(=O)N[C@@H](Cc2ccccc2)C(=O)O)CC(C)(C)N([O])C(C)(C)C1 (stereo partly drawn) [Proxyl/TOAC^348-Gtα(340–350)] (X1-VLEDLKSC[TOAC]LF-OH) |  | retained the ability to stabilize the MII state | Kd [5]: 65 µM
4 | Proxyl-Gtα(340–350): Gtα(340–350) with Proxyl spin label at the amino terminus (Proxyl-IKENLKDCGLF) |  | retained the ability to stabilize the MII state | 
5 | IKE-TOAC-LKDCGLF [TOAC^343-Gtα(340–350)] |  | retained the ability to stabilize the MII state | 
6 | Proxyl-Gtα(340–350) high-affinity peptide | 4 µM |  | 
